From patent publication US20200347143A1 (GLENMARK PHARMACEUTICALS S A, published 2020)

T1: human OX40 on cells (human, UniProt P43489 29-277)
T1 sequence (looked up): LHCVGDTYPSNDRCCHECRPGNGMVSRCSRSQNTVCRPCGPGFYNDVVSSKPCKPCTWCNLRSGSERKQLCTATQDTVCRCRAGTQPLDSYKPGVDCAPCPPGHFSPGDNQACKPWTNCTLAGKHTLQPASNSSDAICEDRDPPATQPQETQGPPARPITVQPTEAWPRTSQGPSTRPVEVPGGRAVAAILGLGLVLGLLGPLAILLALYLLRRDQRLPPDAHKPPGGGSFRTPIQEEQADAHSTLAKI

T2: recombinant human OX40-his protein (human, UniProt P43489 29-214)
T2 construct: Secreted via the native signal peptide, which lies within residues 1-214; also called Human OX40R-His; histidine tagged human OX40 receptor extracellular domain
T2 sequence: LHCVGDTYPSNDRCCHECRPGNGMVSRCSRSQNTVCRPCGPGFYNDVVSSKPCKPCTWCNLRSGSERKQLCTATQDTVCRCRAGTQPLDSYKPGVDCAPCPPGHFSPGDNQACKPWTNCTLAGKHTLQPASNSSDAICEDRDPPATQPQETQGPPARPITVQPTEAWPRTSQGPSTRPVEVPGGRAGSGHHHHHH


What was measured:
[1] = molecular target: T1, human OX40 on cells; experiment: cell-based or functional assay
[2] = molecular target: rat OX40-Fc (rat); experiment: ELISA on coated rat OX40-Fc
Procedure: (§1) These constructs were expressed in HEK293-EBNA1 cells and purified using protein A. Then, human and rat OX40-Fc were tested in ELISA and Biacore to determine antibody cross-reactivity. For the ELISA, 96 well-microtiter plates (Costar USA, distributor VWR AG, Nyon, Switzerland) were coated with 100 μl of recombinant human or rat OX40-Fc at 2 μg/ml in PBS. Plates were incubated overnight at 4° C. and were then blocked with PBS 2% BSA (Bovine Serum Albumine, PAA Laboratories, Pasching, Austria) at room temperature (RT) for one hour. The blocking solution was removed and the purified antibodies were added at 10 μg/ml in PBS 2% BSA. The plates were incubated at RT for 1 hour, then washed 5 times with PBS 0.01% Tween-20 (Sigma-Aldrich Chemie GmbH, Buchs, Switzerland). […] Plates were incubated for 1 hour at RT, washed 5 times with PBS 0.01% Tween-20 and the TMB substrate (Bio-rad Laboratories AG, Reinach, Switzerland) was added to the plates and the reaction stopped after 5 minutes by adding H₂SO₄. Absorbance was then read at 450 nm by a microplate reader (Biotek, USA; distributor: WITTEC AG, Littau, Switzerland). Biacore experiments were specifically conducted with Hexa-hzG3V9 and Hexa-hz1D10v1 which are dAb-Fc fusion proteins. […] Binding of human and cyno OX40-Fc molecules was determined by successively injecting these proteins on the 4 flow-paths (flow-path 1 and 3 being used as references) at a concentration of 200 nM and a flow rate of 30 uL/min for 240 seconds. Regeneration between the two injections was done using 3M MgCl2, at 30 uL/min for 60 seconds. Using these two approaches, human/rat OX40 binding was assessed (table 16).

[3] = molecular target: T3, human OX40-Fc (human); experiment: ELISA on coated human OX40-Fc, antibody 10 µg/ml
T3 construct: also called recombinant human OX40-Fc; human OX40 (HHHH)
Procedure: as §1

[4] = molecular target: T1, human OX40 on cells; experiment: flow cytometry on HPB-ALL cells, 10 µg/ml antibody
Procedure: HPB-ALL cells (DSMZ, Braunschweig, Germany, Cat. No: ACC483) were used as a human OX40 positive cell line for FACS staining. HPB-ALL were maintained in RPMI 1640 supplemented with 10% FCS and 100 U/ml Penicillin and 100 μg/ml streptomycin. 4×10e5 HPB-ALL cells in FACS buffer (PBS supplemented with 1% BSA and 0.1% sodium azide) were incubated for 45 min on ice with the anti-OX40 antibody of interest kept at a concentration of 10 μg/ml An irrelevant human IgG1 was used as an isotype control; the cells were incubated with a 1/200 dilution of anti-Human Fc-PE (EBioscience, Vienna, Austria) for 45 min on ice. Cells were then washed again and resuspended in 200 μl FACS buffer. The relative mean fluorescence of each sample was measured on a FACSCalibur instrument (BD Biosciences, Allschwil, Switzerland).
A first set of 16 humanized antibodies of human gamma one isotype were prepared. These first humanized candidates were assessed for transient expression in HEK293E cells and binding to HB-ALL cell by flow cytometry (Table 7).

[5] = molecular target: T2, recombinant human OX40-his protein; experiment: SPR (BIAcore 2000), antibody captured on Protein A, OX40-his injected
Procedure: SPR analysis was used to measure the association and dissociation rate constants for the binding kinetics of the anti-OX40 antibodies. The binding kinetics were measured on a BIAcore 2000 (BIAcore-GE Healthcare Europe GmbH, Glattbrugg, Switzerland) at room temperature and analyzed with the BiaEvaluation software (v4.1, GE Healthcare Europe GmbH).
Measurements were performed on CM5 sensor chips (Biacore 2000, GE Healthcare Europe GmbH, Cat. No: BR-1000-14) individually coupled with Protein A (Sigma, Buchs, Switzerland, Cat. No: P7837) using a commercial amine coupling kit (GE Healthcare Europe GmbH, Cat. No: BR-1000-50). 200-600 RUs of humanized antibody were captured. Dilution series of OX40-his were injected at a flow rate of 10 μl/min in HBS-EP buffer (GE Healthcare Europe GmbH, Cat. No: BR1001-88). After each binding event, the surface was regenerated with 10 μl of glycine buffer pH 1.5. Experimental data were processed using a 1:1 Langmuir model with local Rmax. The dissociation time was about 7 min. Measurements were performed in duplicates or triplicates and included zero-concentration samples for referencing. Both Chit and residual values were used to evaluate the quality of a fit between the experimental data and individual binding models.

Chain of rat OX40-Fc (rat) (chain, as listed by the source limits assumed): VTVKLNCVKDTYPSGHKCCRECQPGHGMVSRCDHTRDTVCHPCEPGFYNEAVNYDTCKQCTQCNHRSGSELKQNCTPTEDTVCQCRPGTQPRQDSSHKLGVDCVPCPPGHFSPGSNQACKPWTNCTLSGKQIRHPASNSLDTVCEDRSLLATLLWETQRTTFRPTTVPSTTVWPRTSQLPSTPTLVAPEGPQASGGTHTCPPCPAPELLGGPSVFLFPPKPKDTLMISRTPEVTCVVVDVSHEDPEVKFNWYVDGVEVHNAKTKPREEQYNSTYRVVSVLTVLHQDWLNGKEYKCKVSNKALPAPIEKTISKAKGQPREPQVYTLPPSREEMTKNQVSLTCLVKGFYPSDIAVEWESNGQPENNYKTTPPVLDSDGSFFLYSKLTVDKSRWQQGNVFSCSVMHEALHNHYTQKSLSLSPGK

| % donor responder (>2), SEB assay, IL-2 release [1] [%] | Mean, normalized IL-2 release, SEB assay [1] | binding result [2] | binding result [3] | MFI [4] | Kd [5] [nM] | koff [5] [s⁻¹] | kon [5] [M⁻¹ s⁻¹] | Binder |
| --- | --- | --- | --- | --- | --- | --- | --- | --- |
| 18 | 1.87 | no binding (tested: 10 µg/ml) | – | – | – | – | – | 11D4 IgG2 (antibody, V domains shown) VH: EVQLVESGGGLVQPGGSLRLSCAASGFTFSSYSMNWVRQAPGKGLEWVSYISSSSSTIDYADSVKGRFTISRDNAKNSLYLQMNSLRDEDTAVYYCARESGWYLFDYWGQGTLVTVSS VL: DIQMTQSPSSLSASVGDRVTITCRASQGISSWLAWYQQKPEKAPKSLIYAASSLQSGVPSRFSGSGSGTDFTLTISSLQPEDFATYYCQQYNSYPPTFGGGTKVEIKR |
| 50 | 2.36 | no binding (tested: 10 µg/ml) | binds | – | – | – | – | 9B12 IgG1 (antibody, V domains shown, also called OX40mab24) VH: QVQLQESGPGLVKPSQTLSLTCAVYGGSFSSGYWNWIRKHPGKGLEYIGYISYNGITYHNPSLKSRITINRDTSKNQYSLQLNSVTPEDTAVYYCARYKYDYDGGHAMDYWGQGTLVTVSS VL: DIQMTQSPSSLSASVGDRVTITCRASQDISNYLNWYQQKPGKAPKLLIYYTSKLHSGVPSRFSGSGSGTDYTLTISSLQPEDFATYYCQQGSALPWTFGQGTKVEIKR |
| – | – | – | binds | – | – | – | – | 1A7 IgG1 (antibody, V domains shown) VH: EVQLVQSGAEVKKPGASVKVSCKASGYTFTDSYMSWVRQAPGQGLEWIGDMYPDNGDSSYNQKFRERVTITRDTSTSTAYLELSSLRSEDTAVYYCVLAPRWYFSVWGQGTLVTVSS VL: DIQMTQSPSSLSASVGDRVTITCRASQDISNYLNWYQQKPGKAPKLLIYYTSRLRSGVPSRFSGSGSGTDFTLTISSLQPEDFATYYCQQGHTLPPTFGQGTKVEIKR |
| 0 | 0.96 | – | – | – | – | – | – | Tri-8 (bispecific antibody, human IgG1, kappa, L234A L235A) heavy 1: QVQLVQSGAEVKKPGASVKVSCKASGYTFTRYYMHWVRQAPGQGLEWMGWIYPGEGSTKYAQKFQGRVTMTRDTSISTAYMELSRLRSDDTAVYYCAREYGNYDYWGQGTLVTVSSASTKGPSVFPLAPSSKSTSGGTAALGCLVKDYFPEPVTVSWNSGALTSGVHTFPAVLQSSGLYSLSSVVTVPSSSLGTQTYICNVNHKPSNTKVDKKVEPKSCDKTHTCPPCPAPEAAGGPSVFLFPPKPKDTLMISRTPEVTCVVVDVSHEDPEVQFKWYVDGVEVHNAKTKPREEQYNSTFRVVSVLTVLHQDWLNGKEYKCKVSNKALPAPIEKTISKTKGQPREPAVYTLPPSREEMTKNQVKLVCLVTGFYPSDIAVEWESSGQPENNYYTTPPMLDSDGSFSLVSWLNVDKSRWQQGNIFSCSVMHEALHNRFTQKSLSLSPGGGGGTEVQLVESGGGLVQPGGSLRLSCAVSGYSITSDYAWNWIRQAPGKCLEWMGYISYSGSTAYNPSLKSRITISRDTSKNTFYLQMSSLRAEDTAVYYCARGPYNYLAYWGQGTLVTVSSGGGGSGGGGSGGGGSDIQLTQSPSSLSASVGDRVTITCRASESVDNYGISFMNWFQQKPGKAPKLLIYAASNQKSGVPSRFSGSGSGTDFTLTISSLQPEDFATYFCQQSKEVPLTFGCGTKVEIL heavy 2: QVQLVQSGAEVKKPGASVKVSCKASGYTFTRYYMHWVRQAPGQGLEWMGWIYPGEGSTKYAQKFQGRVTMTRDTSISTAYMELSRLRSDDTAVYYCAREYGNYDYWGQGTLVTVSSASTKGPSVFPLAPSSKSTSGGTAALGCLVKDYFPEPVTVSWNSGALTSGVHTFPAVLQSSGLYSLSSVVTVPSSSLGTQTYICNVNHKPSNTKVDKKVEPKSCDKTHTCPPCPAPEAAGGPSVFLFPPKPKDTLMISRTPEVTCVVVDVSHEDPEVKFNWYVDGVEVHNAKTKPREEQYNSTYRVVSVLTVLHQDWLNGKEYKCKVSNKALPAPIEKTISKAKGQPREPEVATFPPSRDELTKNQVTLVCLVTGFYPSDIAVEWESNGQPENNYKTDPPLLESQGSFALSSRLRVDKSRWQQGNVFSCSVMHEALHNHYTQKSLSLSPGK light: not shown |
| 6 | 0.86 | no binding (tested: 10 µg/ml) | binds | – | – | – | – | 106-222 IgG1 (antibody, V domains shown) VH: QVQLVQSGSELKKPGASVKVSCKASGYTFTDYSMHWVRQAPGQGLKWMGWINTETGEPTYADDFKGRFVFSLDTSVSTAYLQISSLKAEDTAVYYCANPYYDYVSYYAMDYWGQGTTVTVSS VL: DIQMTQSPSSLSASVGDRVTITCKASQDVSTAVAWYQQKPGKAPKLLIYSASYLYTGVPSRFSGSGSGTDFTFTISSLQPEDIATYYCQQHYSTPRTFGQGTKLEIKR |
| – | – | – | – | 120 | 35 | 0.00058 | 16700 | Humanized 7H11 VH1/VL1 IgG1 (antibody, V domains shown, human IgG1, kappa; also called Humanized VH1-VL1 IgG1) VH: QVQLVQSGAEVKKPGASVKVSCKASGYTFTRYYMHWVRQAPGQGLEWMGWIYPGDGSTKYSQKFQGRVTITRDTSASTAYMELSSLRSEDTAVYYCAREYGNYDYWGQGTLVTVSS VL: DIVMTQSPDSLAVSLGERATINCKSSQSLLNSGNQKNYLAWYQQKPGQPPKLLIYGASTRESGVPDRFSGSGSGTDFTLTISSLQAEDVAVYYCQNDHSYPYTFGQGTKLEIKR |
| – | – | – | – | 120 | 21 | 0.0013 | 58500 | Humanized 7H11 VH2/VL1 IgG1 (antibody, V domains shown, human IgG1, kappa; also called Humanized VH2-VL1 IgG1) VH: QVQLVQSGAEVKKPGASVKVSCKASGYTFTRYYMHWVRQAPGQGLEWMGWIYPGDGSTNYAQKFQGRVTMTRDTSISTAYMELSRLRSDDTAVYYCAREYGNYDYWGQGTLVTVSS VL: DIVMTQSPDSLAVSLGERATINCKSSQSLLNSGNQKNYLAWYQQKPGQPPKLLIYGASTRESGVPDRFSGSGSGTDFTLTISSLQAEDVAVYYCQNDHSYPYTFGQGTKLEIKR |
| – | – | – | – | 121 | 80 | 0.0055 | 62500 | Humanized 7H11 VH3/VL1 IgG1 (antibody, V domains shown, human IgG1, kappa; also called Humanized VH3-VL1 IgG1) VH: QVQLVQSGAEVKKPGASVKVSCKASGYTFTRYYMHWVRQAPGQGLEWMGIIYPGDGSTSYAQKFQGRVTMTRDTSTSTVYMELSSLRSEDTAVYYCAREYGNYDYWGQGTLVTVSS VL: DIVMTQSPDSLAVSLGERATINCKSSQSLLNSGNQKNYLAWYQQKPGQPPKLLIYGASTRESGVPDRFSGSGSGTDFTLTISSLQAEDVAVYYCQNDHSYPYTFGQGTKLEIKR |
| 100 | 48.4 | – | – | – | – | – | – | 2H6_hzG3v9_8 (bispecific antibody, human IgG1, kappa, L234A L235A) heavy: not shown light: DIQLTQSPSSLSASVGDRVTITCRASESVDNYGISFMNWFQQKPGKAPKLLIYAASNQKSGVPSRFSGSGSGTDFTLTISSLQPEDFATYFCQQSKEVPLTFGQGTKVEIKRTVAAPSVFIFPPSDEQLKSGTASVVCLLNNFYPREAKVQWKVDNALQSGNSQESVTEQDSKDSTYSLSSTLTLSKADYEKHKVYACEVTHQGLSSPVTKSFNRGEC |
